This assay concerns the target pY peptide GGGpYGGG. Kind of assay: BLI (Octet RED384), biotinylated peptide on streptavidin sensor, Fab in solution, 1:1 fit.

The values that follow come from patent US20200131277A1.

A word on the Kd: it is the concentration at which binding is half-saturated.

On to 4G10^4D5 (Fab), for which the Kd is 277 nM.
Regarding PY20^4D5 (Fab), the Kd worked out at 1830 nM.
